Source: paper PMC9352680, “A comprehensive thermodynamic model for RNA binding by the Saccharomyces cerevisiae Pumilio protein PUF4”

B1: Id_ii_S3_P4E.3_K4.2_C4.2_[C-2A]_[T-1A]_H4.2_A4.1_F4.1_T4.2_[G10C] (ssRNA)
RNA: ACAAACAAUAUAUAUUACUACAAAC
B2: Id_ii_S3_P4E.3_K4.2_C4.2_[C-2A]_[T-1A]_H4.2_A4.1_F4.1_T4.2_[G10A]_[T11A] (ssRNA)
RNA: ACAAACAAUAUAUAUUAAAACAAAC
B3: Id_ii_S3_P4E.3_K4.2_C4.2_[C-2A]_[T-1A]_H4.2_A4.1_F4.1_T4.2_[T11C] (ssRNA)
RNA: ACAAACAAUAUAUAUUAGCACAAAC
B4: Id_ii_S3_P4E.3_K4.2_C4.2_[C-2A]_[T-1A]_H4.2_A4.1_F4.1_T4.2_[G10C]_[T11G] (ssRNA)
RNA: ACAAACAAUAUAUAUUACGACAAAC
B5: Id_ii_S3_P4E.3_K4.2_C4.2_[T-1A]_H4.2_A4.1_F4.1_T4.2_[G10C]_[T11C] (ssRNA)
RNA: ACAAACCAUAUAUAUUACCACAAAC
B6: Id_ii_S3_P4E.4_K4.3_C4.2_[C-2T]_[T-1G]_H4.3_A4.1_F4.1_T4.2_[G10A]_[T11C] (ssRNA)
RNA: ACAAACUGACACUAUUAACACAAAC
B7: Id_ii_S3_P4E.3_K4.2_C4.2_[C-2A]_[T-1G]_H4.2_A4.1_F4.1_T4.2_[T11A] (ssRNA)
RNA: ACAAACAGUAUAUAUUAGAACAAAC
B8: Id_ii_S3_P4E.3_K4.2_C4.2_[C-2T]_H4.2_A4.1_F4.1_T4.2_[G10T]_[T11A] (ssRNA)
RNA: ACAAACUUUAUAUAUUAUAACAAAC
B9: Id_ii_S3_P4E.4_K4.3_C4.2_[C-2T]_[T-1C]_H4.3_A4.1_F4.1_T4.2_[G10A]_[T11C] (ssRNA)
RNA: ACAAACUCACACUAUUAACACAAAC
B10: Ib_S1_P5E.1_K5.1_C5.1_H5.1_A5.1_[A7C]_F5.1_[A10C]_T5.1 (ssRNA)
RNA: UCUCUUUGUAUUCUUCUCUCUU
B11: Id_ii_S3_P4E.4_K4.3_C4.2_[C-2T]_[T-1G]_H4.3_A4.1_F4.1_T4.2_[G10T]_[T11C] (ssRNA)
RNA: ACAAACUGACACUAUUAUCACAAAC
B12: Id_ii_S3_P4E.3_K4.2_C4.2_[C-2A]_[T-1G]_H4.2_A4.1_F4.1_T4.2_[T11G] (ssRNA)
RNA: ACAAACAGUAUAUAUUAGGACAAAC
B13: Id_ii_S3_P4E.3_K4.2_C4.2_[T-1C]_H4.2_A4.1_F4.1_T4.2_[G10A] (ssRNA)
RNA: ACAAACCCUAUAUAUUAAUACAAAC
B14: Id_ii_S3_P4E.4_K4.3_C4.2_[C-2G]_H4.3_A4.1_F4.1_T4.2_[G10T]_[T11C] (ssRNA)
RNA: ACAAACGUACACUAUUAUCACAAAC
B15: Id_ii_S3_P4E.4_K4.3_C4.2_[C-2A]_[T-1C]_H4.3_A4.1_F4.1_T4.2_[G10C] (ssRNA)
RNA: ACAAACACACACUAUUACUACAAAC
B16: Id_ii_S3_P4E.3_K4.2_C4.2_[T-1C]_H4.2_A4.1_F4.1_T4.2_[G10T] (ssRNA)
RNA: ACAAACCCUAUAUAUUAUUACAAAC
B17: Id_ii_S3_P4E.3_K4.2_C4.2_[C-2A]_H4.2_A4.1_F4.1_T4.2_[G10T]_[T11C] (ssRNA)
RNA: ACAAACAUUAUAUAUUAUCACAAAC
B18: Id_ii_S3_P4E.3_K4.2_C4.2_[T-1C]_H4.2_A4.1_F4.1_T4.2_[G10C] (ssRNA)
RNA: ACAAACCCUAUAUAUUACUACAAAC
B19: Id_ii_S3_P4E.4_K4.3_C4.2_[C-2A]_[T-1C]_H4.3_A4.1_F4.1_T4.2_[G10T] (ssRNA)
RNA: ACAAACACACACUAUUAUUACAAAC
B20: Id_ii_S3_P4E.4_K4.3_C4.2_[C-2G]_H4.3_A4.1_F4.1_T4.2_[G10A]_[T11C] (ssRNA)
RNA: ACAAACGUACACUAUUAACACAAAC
B21: Id_ii_S3_P4E.4_K4.3_C4.2_[C-2G]_H4.3_A4.1_F4.1_T4.2_[T11C] (ssRNA)
RNA: ACAAACGUACACUAUUAGCACAAAC
B22: Id_ii_S3_P4E.3_K4.2_C4.2_[C-2A]_H4.2_A4.1_F4.1_T4.2_[G10C]_[T11G] (ssRNA)
RNA: ACAAACAUUAUAUAUUACGACAAAC
B23: Id_ii_S3_P4E.3_K4.2_C4.2_[C-2A]_[T-1A]_H4.2_A4.1_F4.1_T4.2_[G10T]_[T11C] (ssRNA)
RNA: ACAAACAAUAUAUAUUAUCACAAAC
B24: Id_ii_S3_P4E.4_K4.3_C4.2_[C-2T]_[T-1C]_H4.3_A4.1_F4.1_T4.2_[G10T] (ssRNA)
RNA: ACAAACUCACACUAUUAUUACAAAC
B25: Id_ii_S3_P4E.3_K4.2_C4.2_[T-1C]_H4.2_A4.1_F4.1_T4.2_[G10A]_[T11C] (ssRNA)
RNA: ACAAACCCUAUAUAUUAACACAAAC
B26: Id_ii_S3_P4E.3_K4.2_C4.2_[C-2A]_H4.2_A4.1_F4.1_T4.2_[T11A] (ssRNA)
RNA: ACAAACAUUAUAUAUUAGAACAAAC
B27: Ib_S1_P5E.1_K5.1_C5.1_H5.1_A5.1_[A7G]_F5.1_[A10C]_T5.1 (ssRNA)
RNA: UCUCUUUGUAUUGUUCUCUCUU
B28: Id_ii_S3_P4E.3_K4.2_C4.2_[C-2A]_[T-1G]_H4.2_A4.1_F4.1_T4.2_[G10A]_[T11C] (ssRNA)
RNA: ACAAACAGUAUAUAUUAACACAAAC
B29: Id_ii_S3_P4E.3_K4.2_C4.2_[C-2A]_[T-1C]_H4.2_A4.1_F4.1_T4.2_[G10C]_[T11C] (ssRNA)
RNA: ACAAACACUAUAUAUUACCACAAAC
B30: Id_ii_S3_P4E.3_K4.2_C4.2_H4.2_A4.1_F4.1_T4.2_[G10A] (ssRNA)
RNA: ACAAACCUUAUAUAUUAAUACAAAC
B31: Id_ii_S3_P4E.3_K4.2_C4.2_H4.2_A4.1_F4.1_T4.2_[G10C] (ssRNA)
RNA: ACAAACCUUAUAUAUUACUACAAAC

What follows are binders tested against T1, PUF4 RNA-binding domain (Saccharomyces cerevisiae, UniProt P25339 537-888) (assay: Mg; RNA-MaP; 20 mM Na-HEPES pH 7.4, 30 mM KOAc, 0.75 mM MgCl2, 0.1% Tween-20, 5% glycerol, 0.1 mg/mL BSA, 2 mM DTT; 25 C; 0.0125-409.6 nM protein). Settings: tags: N-His6-TEV cleaved; C-SNAP kept, Cy3B-labelled; label: tethered on chip by stalled RNA polymerase.
T1 sequence: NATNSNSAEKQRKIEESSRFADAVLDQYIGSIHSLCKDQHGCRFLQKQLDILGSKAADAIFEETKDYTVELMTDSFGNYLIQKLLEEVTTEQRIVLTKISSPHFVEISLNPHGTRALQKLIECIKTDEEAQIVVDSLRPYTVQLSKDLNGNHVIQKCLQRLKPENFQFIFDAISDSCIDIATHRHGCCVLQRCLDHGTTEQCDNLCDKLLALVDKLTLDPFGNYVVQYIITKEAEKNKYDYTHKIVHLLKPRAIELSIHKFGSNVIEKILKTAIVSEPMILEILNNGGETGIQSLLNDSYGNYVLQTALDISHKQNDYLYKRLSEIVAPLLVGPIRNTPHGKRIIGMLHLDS
B1 showed a Kd of 28.2 nM.
B2 gave a Kd of 108 nM.
B3 gave a Kd of 11.9 nM.
B4 showed a Kd of 43.6 nM.
B5 showed a Kd of 32.1 nM.
With B6 the Kd was > 2300 nM.
Binder B7 has a Kd of 11.3 nM.
Work on B8 yielded a Kd of 18.1 nM.
For B9, the Kd was > 2300 nM.
For B10, the Kd was 36.4 nM.
For B11, the Kd was > 2300 nM.
With B12 the Kd was 20.3 nM.
B13 was tested, and the Kd was 14 nM.
B14 gave a Kd of 39.9 nM.
In the case of B15, the Kd is reported as > 2300 nM.
With B16 the Kd was 13.3 nM.
B17 showed a Kd of 19.4 nM.
In the case of B18, the Kd is reported as 18.4 nM.
In the case of B19, the Kd is reported as > 2300 nM.
B20 gave a Kd of 39.8 nM.
With B21 the Kd was 70.4 nM.
B22 showed a Kd of 21.4 nM.
With B23 the Kd was 70.9 nM.
For B24, the Kd was > 2300 nM.
B25 showed a Kd of 25.9 nM.
B26 gave a Kd of 12.8 nM.
B27 was tested, and the Kd was 45.8 nM.
With B28 the Kd was 38.8 nM.
Work on B29 yielded a Kd of 33.5 nM.
Work on B30 yielded a Kd of 14 nM.
B31 gave a Kd of 13.3 nM.
